Measured values: article PMC10636607
Where two headings read alike, the source gives them in different places.

How the values were obtained:
Assay in all cases: BLI
influenza HA = target: influenza HA
SARS-CoV-2 spike = target: SARS-CoV-2 spike
[1] = target: biotinylated SARS-CoV-2 fusion peptide
[2] = target: HCV E2 envelope glycoprotein
[3] = target: HC84.26.5D Fab VH G50R (human)
HC84.26.5D Fab VH G50R (human), sequence (heavy, as listed by the source, chain 1 of 2): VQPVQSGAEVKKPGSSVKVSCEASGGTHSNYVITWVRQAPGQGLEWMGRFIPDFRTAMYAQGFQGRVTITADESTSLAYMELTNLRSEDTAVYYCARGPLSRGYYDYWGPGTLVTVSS
HC84.26.5D Fab VH G50R (human), sequence (light, as listed by the source, chain 2 of 2): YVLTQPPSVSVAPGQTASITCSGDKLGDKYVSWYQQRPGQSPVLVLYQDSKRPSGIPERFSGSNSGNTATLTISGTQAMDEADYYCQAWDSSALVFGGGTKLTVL

Which ratio to parent (influenza HA) does the source give for 8F8 (WT) H:S31R here?
Its ratio to parent is greater than 100.

Which ratio to parent (SARS-CoV-2 spike; read off a plot) does the source give for Ab326 (WT) H:V50F here?
The ratio to parent was 9.4.

Which ratio to parent [1] does the source give for COV44-62 Fab (WT) H:R50W here?
Its ratio to parent is greater than 100.

For COVOX-316 (WT) H:W50R, which ratio to parent (SARS-CoV-2 spike) is on record?
Its ratio to parent is greater than 100.

Which ratio to parent (influenza HA) does the source give for H1244 (WT) H:S32Y here?
The ratio to parent was greater than 100.

How did the ratio to parent [2] turn out when HC33.8 (WT) H:S52Y was run?
The ratio to parent was greater than 100.

Which ratio to parent [2] does the source give for HCV1 (WT) H:W52S here?
Its ratio to parent is greater than 100.

For “HCV (isolate H77) E2 domain protein (domain or fragment)”, which fold change in KD against the wild-type Fab [3] is on record?
The fold change in KD against the wild-type Fab was 6 fold.

Which ratio to parent (SARS-CoV-2 spike) does the source give for P008_60 (WT) H:S52R here?
The ratio to parent was greater than 100.
